# In patent US11787839B2, “Targeting α2δ-1-bound glutamate receptors for treating diseases and disorders” (Board of Regents, The University of Texas System, priority 2017, dated 2023):
# Experiments:
# [1] = target: T1, α2δ-1-GluN1 protein complex (Mus musculus, UniProt O08532+P35438); assay: Co-IP of α2δ-1 and GluN1 in mouse brain slices; format: cell-based
# T1 construct: from tissue; host or cells: mouse brain slices (hippocampal CA1, hypothalamic PVN, brain tissue membrane extracts)
# Method: FIGS. 22A-22D: α2δ-1-bound NMDARs contribute to brain injury and neurological deficit caused by MCAO in the brain. (A) Upper: Original gel images of coimmunoprecipitation (co-IP) analysis show the interaction between α2δ-1 and GluN1 in two samples from mouse brain tissues; Lower: Effect of α2δ-1Tat peptide (1 μM for 60 min) on the α2δ-1-GluN1 protein complex in mouse brain tissues (n=6 mice per group). (B) Representative gel images and quantification of co-IP analysis show the effect of OGD on the α2δ-1-GluN1 or α2δ-1-Cav2.2 association in mouse brain tissues (n=6 mice per group). IgG and input were used as negative and positive controls, respectively. (C) Original gel images and quantification of co-IP analysis show the effect of α2δ-1Tat peptide (P) and control peptide (C; both 1 μM for 30 min) on the α2δ-1-GluN1 or α2δ-1-Cav2.2 association in mouse brain slices subjected to OGD (O, n=6 mice per group). (D) Neurological severity scores (left) and representative TTC staining and quantification (right) of brain infarct volume in MCAO mice treated with α2δ-1Tat peptide or control peptide (both 200 μg/kg, i.p.) at 15 min before MCAO and immediately before reperfusion (n=8 mice per group). Data are shown as means±SEM. *p<0.05, **p<0.01 compared with the control peptide- or vehicle-treated group (paired Student's t-test for panels B-D and F; Mann-Whitney test for panel E). […]
# paclitaxel-treated rats = assay: Paclitaxel-induced pain hypersensitivity in rats; format: in vivo, rat; settings: intrathecal 5 μg pregabalin, 1 μg peptides
# Method: To induce neuropathic pain, rats and mice were intraperitoneally injected with paclitaxel (2 mg/kg; TEVA Pharmaceuticals, North Wales, Pa.) every 2 days for a total of 4 injections (days 1, 3, 5 and 7; total dose, 8 mg/kg), as described previously (Polomano et al., 2001). Animals in the control group were intraperitoneally injected with the vehicle (Cremophor EL/ethanol, 1:1) on the same 4 days. The presence of tactile allodynia was confirmed 10 to 12 days after drug treatment. Intrathecal catheters were implanted in some paclitaxel-treated rats during isoflurane-induced anesthesia. Briefly, a small puncture was made in the atlanto-occipital membrane of the cisterna magna and inserted a PE-10 catheter with the caudal tip reaching the lumbar enlargement of the spinal cord (Chen et al., 2014a; Xie et al., 2016).
# Behavioral assessment of nociception: To measure tactile allodynia, mice or rats were individually placed on a mesh floor within a suspended chamber. […]
# To quantify the mechanical nociceptive threshold in rats, the paw pressure (Randall-Selitto) test was conducted on the left hindpaw using an analgesiometer (Ugo Basile, Varese, Italy). […] When the rat withdrew its paw or vocalized, the pedal was immediately released, and the withdrawal threshold was recorded (Chen et al., 2014a). […]
# To assess the thermal sensitivity of rats, the were placed individually on the glass surface of a thermal testing apparatus (IITC Life Sciences, Woodland Hills, Calif.). […] The paw withdrawal latency was recorded with a timer, and the hindpaw was tested twice to obtain an average time. […] After the threshold temperature was recorded, the mice were immediately removed from the plate. The heat threshold measurement was repeated 30 min later, and the average of the 2 recorded temperatures was considered as the heat threshold. The cold threshold was measured by cooling the plate from 30° C. at a rate of 6° C./min until nocifensive behaviors were observed. […]
# T1 sequence (O08532 25-956 limits assumed, other chains not shown): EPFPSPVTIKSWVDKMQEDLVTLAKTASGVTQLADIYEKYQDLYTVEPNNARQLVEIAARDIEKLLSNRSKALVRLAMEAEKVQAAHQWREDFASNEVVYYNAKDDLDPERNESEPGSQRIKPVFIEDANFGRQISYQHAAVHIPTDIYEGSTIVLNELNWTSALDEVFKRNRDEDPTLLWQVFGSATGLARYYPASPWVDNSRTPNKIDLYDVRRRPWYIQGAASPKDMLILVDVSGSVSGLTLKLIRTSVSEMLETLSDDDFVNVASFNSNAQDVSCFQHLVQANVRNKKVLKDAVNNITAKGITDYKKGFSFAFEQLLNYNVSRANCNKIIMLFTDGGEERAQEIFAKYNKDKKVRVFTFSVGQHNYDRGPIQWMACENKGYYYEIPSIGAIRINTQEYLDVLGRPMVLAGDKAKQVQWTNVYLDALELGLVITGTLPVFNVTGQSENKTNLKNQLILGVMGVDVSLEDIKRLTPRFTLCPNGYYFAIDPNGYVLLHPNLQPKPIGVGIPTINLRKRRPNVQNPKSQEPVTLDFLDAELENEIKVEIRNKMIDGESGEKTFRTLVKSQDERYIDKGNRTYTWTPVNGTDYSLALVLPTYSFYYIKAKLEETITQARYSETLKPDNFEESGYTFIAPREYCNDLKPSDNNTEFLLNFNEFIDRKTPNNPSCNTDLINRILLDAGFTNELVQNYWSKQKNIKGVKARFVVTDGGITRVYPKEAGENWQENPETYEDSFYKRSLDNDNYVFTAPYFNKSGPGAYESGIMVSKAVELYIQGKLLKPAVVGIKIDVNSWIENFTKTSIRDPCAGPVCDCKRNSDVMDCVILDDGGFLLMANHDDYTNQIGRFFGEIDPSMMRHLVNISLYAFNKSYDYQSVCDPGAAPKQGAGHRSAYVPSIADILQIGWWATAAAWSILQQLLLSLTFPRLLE
sequence,measurement,setting,value
"YGRKKRRQRRRVSGLNPSLWSIFGLQFILLWLVSGSRHYLW (a2d1 peptide) [α2δ-1Tat peptide, 30-amino-acid peptide mimicking the C-terminal domain of α2δ-1 fused to the cell-penetrating peptide Tat]",α2δ-1-GluN1 interaction in brain tissues subjected to OGD,"[1]; OGD, 1 μM for 30 min",substantially reduced
same,α2δ-1-GluN1 protein complex in brain tissues,"[1]; brain slices, 1 μM for 60 min",large reduction
same,"paclitaxel-induced pain hypersensitivity (tactile allodynia, mechanical and thermal hyperalgesia)",paclitaxel-treated rats,markedly attenuated
